Laboratory results: the supplement of paper PMC7877785
± gives the uncertainty stated by the source.

Assay: self-splicing fitness, log relative to wild type (ln ratio); higher = more splicing; Tetrahymena group I intron in knt gene, E. coli kanamycin selection, DiMSum; sequences stand for … in CUCUCU…GGAGGGAAAAGUUAUCAGGCAUGCACCUGGUAGCUAGUCUUUAAACCAAUAGAUUGCAUCGGUUUAAAAGGCAAGACCGUCAAAUUGCGGGAAAGGGGUCAACAGCCGUUCAGUACCAAGUCUCAGGGGAAACUUUGAGAUGGCCUUGCAAAGGGUAUGGUAAUAAGCUGACGGACAUGGUCCUAACCACGCAGCCAAGUCCUAAGUCAACAGAUCUUCUGUUGAUAUGGAUGCAGUUCACAGACUAAAUGUCGGUCGGGGAAGAUGUAUUCUUCUCAUAAGAUAUAGUCGGACCUCUCCUUAAUGGGAGCUAGCGGAUGAAGUGAUGCAACACUGGAGCCGCUGGGAACUAAUUUGUAUGCGAAAGUAUAUUGAUUAGUUUUGGAGUACUCGUGGUCG
In short: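 Colonies from six replicate transformations of E. coli BL21(DE3) were pooled and amplicon-sequenced on an Illumina HiSeq 2500. The library placed an intron with all eight P1ex-region nucleotides randomised inside the knt kanamycin-resistance gene on pET-22b(+), and cells grew overnight at 37°C or 30°C on LB agar with or without 25 μg/mL kanamycin (plus 100 μg/mL carbenicillin, 50 μM IPTG, 0.2% rhamnose). Fitness is the DiMSum error-weighted combination of wild-type-normalised replicate fold changes, kanamycin versus none.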

| Sequence | self-splicing fitness (ln) (30 °C) | self-splicing fitness (ln) (37 °C) |
| --- | --- | --- |
| UACCAGCAAUAUUACGUCCC | -1.47 ± 0.35 | -1.38 ± 0.38 |
| GUCUAGCAAUAUUACGAAGC | -1.58 ± 0.18 | -0.814 ± 0.18 |
| GGAAAGCAAUAUUACGCGGC | -2.98 ± 0.41 | -2.03 ± 0.45 |
| CCCGAGCAAUAUUACGGGUU | -3.82 ± 0.16 | -2.89 ± 0.18 |
| GAAAAGCAAUAUUACGUACC | -0.525 ± 0.092 | -0.528 ± 0.14 |
| AACGAGCAAUAUUACGCGUA | -2.19 ± 0.19 | -1.72 ± 0.18 |
| GUGCAGCAAUAUUACGUGUU | -1.99 ± 0.081 | -1.22 ± 0.084 |
| AGUAAGCAAUAUUACGUCGG | -3.61 ± 0.35 | -1.8 ± 0.29 |
| CCCAAGCAAUAUUACGAAGU | -2.98 ± 0.15 | -2.19 ± 0.18 |
| UGGAAGCAAUAUUACGCCUG | -0.491 ± 0.083 | -0.15 ± 0.099 |
| AGAAAGCAAUAUUACGGUGU | -2.76 ± 0.098 | -1.28 ± 0.096 |
| AUCCAGCAAUAUUACGUGGG | -2.58 ± 0.1 | -3.5 ± 0.13 |
| UCCGAGCAAUAUUACGGUCA | -0.946 ± 0.067 | -0.671 ± 0.057 |
| UGACAGCAAUAUUACGCGCG | -1.15 ± 0.1 | -0.132 ± 0.11 |
| CUACAGCAAUAUUACGGCCG | -0.378 ± 0.091 | -0.0396 ± 0.11 |
| CGCCAGCAAUAUUACGUACA | -2.74 ± 0.2 | -0.166 ± 0.17 |
| UAAGAGCAAUAUUACGUUUA | -2.31 ± 0.12 | -1.36 ± 0.13 |
| GAAUAGCAAUAUUACGGAAA | -1.98 ± 0.16 | -1.31 ± 0.14 |
| ACUCAGCAAUAUUACGACAG | -1.94 ± 0.11 | -0.382 ± 0.12 |
| UAUAAGCAAUAUUACGAGUA | -0.776 ± 0.085 | -0.245 ± 0.081 |
| CUUGAGCAAUAUUACGACGG | -1.97 ± 0.2 | -1.52 ± 0.26 |
| UCGAAGCAAUAUUACGUAUU | -2.99 ± 0.18 | -3.17 ± 0.31 |
| GCGUAGCAAUAUUACGGGAG | – | -2.28 ± 0.35 |
| AAUCAGCAAUAUUACGCCAC | -3.91 ± 0.21 | -3.78 ± 0.39 |
| GCUGAGCAAUAUUACGCCUU | -1.98 ± 0.31 | -1.48 ± 0.44 |

| Sequence | self-splicing fitness (ln) (30 °C) | self-splicing fitness (ln) (37 °C) |
| --- | --- | --- |
| GAGUAGCAAUAUUACGCUCA | -0.591 ± 0.15 | -0.761 ± 0.15 |
| AUGGAGCAAUAUUACGUCGU | -2.38 ± 0.15 | -1.45 ± 0.18 |
| CUGUAGCAAUAUUACGCGGA | -2.92 ± 0.23 | -2.91 ± 0.24 |
| UAGAAGCAAUAUUACGCCCU | -0.743 ± 0.19 | 0.316 ± 0.22 |
| CAAAAGCAAUAUUACGCUCC | -2.23 ± 0.22 | -1.99 ± 0.29 |
| UGUUAGCAAUAUUACGUUCC | -2.47 ± 0.29 | -2.03 ± 0.41 |
| CUCUAGCAAUAUUACGACUU | – | -3.23 ± 0.31 |
| ACUGAGCAAUAUUACGAAUC | -3.54 ± 0.36 | -2.55 ± 0.21 |
| UCAUAGCAAUAUUACGACUG | -1.04 ± 0.1 | -0.379 ± 0.14 |
| UGCUAGCAAUAUUACGACCA | 0.141 ± 0.17 | 0.148 ± 0.27 |
| AAUUAGCAAUAUUACGGGCU | -2.04 ± 0.23 | -1.64 ± 0.26 |
| CGCAAGCAAUAUUACGCCCC | -1.49 ± 0.36 | -0.475 ± 0.38 |
| GCUGAGCAAUAUUACGAUCU | -1.69 ± 0.094 | -1.05 ± 0.1 |
| CACGAGCAAUAUUACGACGA | -3.66 ± 0.48 | -2.24 ± 0.26 |
| CUACAGCAAUAUUACGAGAG | -2.79 ± 0.16 | -2.21 ± 0.18 |
| ACAAAGCAAUAUUACGGCUC | -0.452 ± 0.078 | -0.217 ± 0.12 |
| AGAUAGCAAUAUUACGCAGG | -1.91 ± 0.17 | -0.155 ± 0.19 |
| AACCAGCAAUAUUACGUUCC | -2.94 ± 0.17 | -0.871 ± 0.14 |
| GCGGAGCAAUAUUACGCCUA | -2.53 ± 0.46 | – |
| UCCCAGCAAUAUUACGUCGA | -0.251 ± 0.071 | 0.317 ± 0.099 |
| GUCCAGCAAUAUUACGCCUG | -2.5 ± 0.2 | -0.12 ± 0.21 |
| AUGGAGCAAUAUUACGACGU | -0.474 ± 0.09 | -0.306 ± 0.099 |
| UCCUAGCAAUAUUACGCACC | -2.95 ± 0.32 | -1.62 ± 0.25 |
| UCCGAGCAAUAUUACGUAAU | -4.41 ± 0.28 | -1.88 ± 0.18 |
| UCUCAGCAAUAUUACGAGGC | – | -1.54 ± 0.36 |

| Sequence | self-splicing fitness (ln) (30 °C) | self-splicing fitness (ln) (37 °C) |
| --- | --- | --- |
| CAAGAGCAAUAUUACGAGCG | -0.536 ± 0.07 | -0.728 ± 0.073 |
| CCAUAGCAAUAUUACGGCGU | -3.98 ± 0.3 | -1.97 ± 0.23 |
| UGUGAGCAAUAUUACGUGGC | – | -1.97 ± 0.4 |
| UCUAAGCAAUAUUACGAAAC | – | -2.6 ± 0.45 |
| GAAGAGCAAUAUUACGUCGA | -1.47 ± 0.21 | -1.76 ± 0.31 |
| GCUUAGCAAUAUUACGGUGC | -1.98 ± 0.12 | -0.681 ± 0.15 |
| AUGAAGCAAUAUUACGUUUC | -4.39 ± 0.2 | -3.03 ± 0.15 |
| CAAUAGCAAUAUUACGUUGC | -4.82 ± 0.42 | -3.05 ± 0.26 |
| GGCGAGCAAUAUUACGUAAU | -1.4 ± 0.13 | -0.339 ± 0.14 |
| AUAGAGCAAUAUUACGAGCG | -2.43 ± 0.21 | -1.07 ± 0.22 |
| AUGCAGCAAUAUUACGGUGU | -3.52 ± 0.16 | -1.63 ± 0.14 |
| UCCCAGCAAUAUUACGACAA | -2.16 ± 0.15 | -1.37 ± 0.14 |
| GUCGAGCAAUAUUACGAGCU | -2 ± 0.42 | – |
| CGGAAGCAAUAUUACGCUAG | -1.05 ± 0.091 | -1.6 ± 0.19 |
| ACACAGCAAUAUUACGUAUU | -3.09 ± 0.089 | -2.29 ± 0.13 |
| ACUGAGCAAUAUUACGAGAU | -4.18 ± 0.33 | -2.27 ± 0.21 |
| AGGCAGCAAUAUUACGAUUU | -0.23 ± 0.085 | -0.332 ± 0.1 |
| UGUGAGCAAUAUUACGGCGU | -3.33 ± 0.3 | -1.92 ± 0.32 |
| AGUAAGCAAUAUUACGACUU | -0.394 ± 0.068 | -0.58 ± 0.097 |
| ACAUAGCAAUAUUACGCUCG | -0.317 ± 0.091 | 0.247 ± 0.12 |
| GACGAGCAAUAUUACGUACG | -2.63 ± 0.29 | -2.17 ± 0.33 |
| GCACAGCAAUAUUACGAAGA | -1.41 ± 0.14 | -1.4 ± 0.18 |
| CUACAGCAAUAUUACGACAA | -2.42 ± 0.2 | -2.19 ± 0.21 |
| UAAGAGCAAUAUUACGACGA | -1.72 ± 0.19 | -1.61 ± 0.21 |
| AGCAAGCAAUAUUACGGUGG | -2.65 ± 0.1 | -2.32 ± 0.15 |

| Sequence | self-splicing fitness (ln) (30 °C) | self-splicing fitness (ln) (37 °C) |
| --- | --- | --- |
| GGUUAGCAAUAUUACGAAAC | – | -1.68 ± 0.41 |
| UUCUAGCAAUAUUACGGGUG | -0.114 ± 0.078 | 0.281 ± 0.11 |
| UAAGAGCAAUAUUACGUGUA | -2.36 ± 0.36 | -2.21 ± 0.27 |
| CAGAAGCAAUAUUACGGAUG | -2.75 ± 0.17 | -2.6 ± 0.21 |
| AGGCAGCAAUAUUACGUGUU | -1.85 ± 0.063 | -1.38 ± 0.088 |
| GUUCAGCAAUAUUACGGUGC | -1.34 ± 0.14 | -0.357 ± 0.12 |
| GGUAAGCAAUAUUACGUACC | -3.79 ± 0.44 | – |
| AAGAAGCAAUAUUACGCAAU | -2.08 ± 0.18 | -1.52 ± 0.2 |
| CUUGAGCAAUAUUACGUCAA | -3.45 ± 0.21 | -2.19 ± 0.23 |
| CUGCAGCAAUAUUACGUGGG | -4.18 ± 0.18 | -3 ± 0.13 |
| AGACAGCAAUAUUACGCUUU | -3.18 ± 0.18 | -1.23 ± 0.12 |
| CCACAGCAAUAUUACGAUAC | -3.48 ± 0.24 | -2.16 ± 0.22 |
| CAAAAGCAAUAUUACGGACU | -2.38 ± 0.12 | -1.46 ± 0.12 |
| GCAGAGCAAUAUUACGUGCG | -2.76 ± 0.096 | -0.667 ± 0.1 |
| GCGGAGCAAUAUUACGUGAG | -2.51 ± 0.12 | -2.01 ± 0.15 |
| ACACAGCAAUAUUACGAAGA | -2.48 ± 0.1 | -1.99 ± 0.12 |
| CGCAAGCAAUAUUACGUCAG | -0.378 ± 0.053 | 0.1 ± 0.069 |
| GCUAAGCAAUAUUACGAGCC | -3.9 ± 0.2 | -2.33 ± 0.33 |
| GUAGAGCAAUAUUACGAAUG | -3.89 ± 0.3 | -2.16 ± 0.21 |
| CACAAGCAAUAUUACGAGUC | -3.71 ± 0.17 | -2.26 ± 0.16 |
| GGAUAGCAAUAUUACGCAGU | -2.7 ± 0.18 | -1 ± 0.12 |
| AUUUAGCAAUAUUACGAUAU | -1.34 ± 0.097 | -0.998 ± 0.11 |
| UUCCAGCAAUAUUACGUAAG | -1.42 ± 0.066 | -0.28 ± 0.095 |
